Like-named read-outs stand apart in the source and are kept apart here.

Data on five molecules can be found in patent publication US6361968 (US Dept. of Health and Human Services, dated 1997).

T1: GBF-C/EBP chimeric protein (GBF: Arabidopsis thaliana; C/EBP: rat …)
T1 chain: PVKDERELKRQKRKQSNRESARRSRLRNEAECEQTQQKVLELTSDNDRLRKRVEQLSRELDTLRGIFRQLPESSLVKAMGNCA

T2: VBP-C/EBP chimeric protein (VBP: chicken; C/EBP: rat liver)
T2 chain: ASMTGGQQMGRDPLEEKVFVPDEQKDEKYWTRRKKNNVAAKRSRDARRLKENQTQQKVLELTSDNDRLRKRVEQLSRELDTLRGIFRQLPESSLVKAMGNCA

T3: bZIP VBP protein (chicken, UniProt Q92172 235-319, limits assumed)
T3 sequence (looked up): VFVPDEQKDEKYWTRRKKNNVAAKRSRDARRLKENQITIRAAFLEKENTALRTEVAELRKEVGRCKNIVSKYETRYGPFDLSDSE

B1: 0heptad-F (F zipper with the basic region deleted) (designed binder)
chain: ASMTGGQQMGRDPGGGTQQEVLELESRNDRLRKEVEQLERELDTLRGIFRQLPESSLVKAMGNCA
notes: Made in E. coli; the initiator methionine is processed off; also called heterodimerizing zipper; 0heptad-F (H)
B2: c-Myc bHLH protein (other)
chain: NDKRRTHNVLERQRRNELKRSFFALRDQIPELENNEKAPKVVILKKATAYILSIQADEHKLTSEKDLLRKRREQLKHKLEQLRNSGA
B3: 3heptad-F (designed binder)
chain: ASMTGGQQMGRDPGGGLARENEELEKEAEELEQENAELEQEVLELESRNDRLRKEVEQLERELDTLRGIFRQLPESSLVKAMGNCA
notes: also called aZIP 3heptadF (CEBP specific)
B4: 4heptadFos (c-Fos with the basic region replaced by four acidic heptad repeats) (designed binder)
chain: MASMTGGQQMGRDPDLEQRAEELARENEELEKEAEELEQENAELEAETDQLEDEKSALQTEIANLLKEKEKLEFILAAHRPACKIP
notes: how the two entries divide the protein is not explained; also called aZIP 4heptadFos; aFos
B5: C/EBP bZIP domain (GCN4-C/EBP chimeric protein) (other)
chain: SEYQPSLFALNPMGFSPLDGSKSTNENVSASTSTAKPMVGQLIFDKFIKTEEDPGKAKKSVDKNSNEYRVRRERNNIAVRKSRDKAKQRNVETQQKVLELTSDNDRLRKRVEQLSRELDTLRGIFRQLPESSLVKAMGNCA
notes: Made in E. coli; forms a homodimer; also called C/EBP-C/EBP; wild type C/EBP

Data set [1] deals with the molecule itself. As to the kind of experiment: CD thermal melt, homodimer, 150 mM KCl, Kd at 25 C. How it is done: (§1) CD analyses were performed as described in Materials and Methods of D. Krylov et al., 1994, *EMBO J.,* 13:2849–2861. T_m values were calculated as described in D, Krylov et al., 1994, Ibid, converted to K_{d(25)} and $\Delta G(25)$ using a $\Delta C_p$ of –0.96 kcal/mol° C.^-1 calculated from a T_m versus $\Delta H$ plot for all of the proteins as described herein. All thermal melts were reversible.
(§2) Table 1 presents the melting temperature (T_m,° C.), $\Delta G$ and k_d at 25° C. for CD thermal melts of a variety of proteins either as homodimers or an equimolar mixture of two proteins. […] The (L) denotes 'low' salt conditions (50 mM KCl, 25 mM Tris pH 8.0, 0.5 mM EDTA, 1 mM DTT) and the (H) denotes regular salt conditions (12.5 mM potassium phosphate, pH 7.4, 150 mM KCl, 0.25 mM EDTA, and 0.5 mM DTT). The latter conditions were used in Table 2. "0heptad-F" represents the F zipper with the basic region deleted. The RMS error in $\Delta G$ is 0.2 kcal/mol and 0.5 kcal/mol for homo- and heterodimers respectively.

Data set [2] deals with the molecule itself. As to the kind of experiment: CD thermal melt, homodimer, 150 mM KCl. How it is done: as §1, §2
Data set [3] concerns the target B5. The experiment in a line: CD thermal melt, equimolar mixture, 150 mM KCl, Kd at 25 C. How it is done:
as §2
(§3) The two chimeras were mixed with the four different length acidic extensions appended to the F zipper and their stability was determined from CD thermal melts.

Data set [4] has as its target T1, GBF-C/EBP chimeric protein. The data set is described as above. How it is done: as §2, §3
For data set [5], the target named is T2, VBP-C/EBP chimeric protein. The data set is described as above. How it is done:
as §2, §3

The target of data set [6] is B5. As to the kind of experiment: CD thermal melt, equimolar mixture, 150 mM KCl. How it is done: as §1, §2
Data set [7] deals with B5. As to the kind of experiment: CD thermal melt, equimolar mixture, 150 mM KCl, Kd at 25 C. How it is done: as §1, §2
The target of data set [8] is B5. As to the kind of experiment: CD thermal melt, equimolar mixture, 150 mM KCl. How it is done:
as §2, §3

Data set [9] deals with T1, GBF-C/EBP chimeric protein. The experiment in a line: CD thermal melt, equimolar mixture, 150 mM KCl. How it is done: as §2, §3
Data set [10] deals with T2, VBP-C/EBP chimeric protein. As to the kind of experiment: CD thermal melt, equimolar mixture, 150 mM KCl. How it is done:
as §2, §3

Data set [11] concerns the molecule itself. As to the kind of experiment: CD thermal melt, homodimer, 150 mM KCl, Kd at 25 C. How it is done:
as §1, §2
The source holds these as a separate data set.

Data set [12] addresses T4, 0heptadMax (dimerization domain of Max without an acidic extension) (UniProt P61244 44-113, limits assumed).
T4 construct: domain: dimerization domain; also called OheptadMax
As to the kind of experiment: heterodimer with c-Myc, dimerization study of FIG. 9.

Another data set has as its target T3, bZIP VBP protein. As to the kind of experiment: thermal melt of the mixture equals the sum of the two homodimer curves (FIG. 5B).
For data set [13], the target named is T5, c-Jun (unmodified) (UniProt P05412 241-331, limits assumed). The experiment in a line: thermal melt of the mixture (FIG. 4).
T5 sequence (P05412 241-331 limits assumed): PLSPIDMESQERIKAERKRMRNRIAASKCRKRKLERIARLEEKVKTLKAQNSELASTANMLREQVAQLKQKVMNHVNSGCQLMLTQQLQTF
The target of data set [14] is T5, c-Jun (unmodified). The experiment in a line: from thermal melts of FIG. 4, Kd at 37 C.
Data set [15] deals with B5. The experiment in a line: thermal melt of the mixture equals the sum of the two homodimer curves (FIG. 5A).
Data set [16] deals with the molecule itself. As to the kind of experiment: CD thermal melt, homodimer, low salt (50 mM KCl), Kd at 25 C. How it is done: as §1, §2

T4 sequence (P61244 other isoform, or with tags, fused parts or gaps limits assumed): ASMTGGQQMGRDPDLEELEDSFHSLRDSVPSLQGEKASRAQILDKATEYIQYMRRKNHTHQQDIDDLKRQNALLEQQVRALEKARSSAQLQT

What is called Kd is the constant that tells how readily two partners part at equilibrium. What is called Tm is the temperature at the midpoint of the melting transition. Regarding B1, the Kd in data set [1] worked out at 2000 nM; in [3], 3 nM; in data set [4], 2 nM; in data set [5] it was 1 nM; in data set [7], 3 nM; in [11], 1000 nM. The “deltaG at 25 C” value in data set [2] is -33.5 kJ/mol; in data set [8], -49.4 kJ/mol; in data set [9], -49.8 kJ/mol; in data set [10], -51 kJ/mol. In addition, the Tm was determined as 55.4 °C in data set [6], 55.4 °C in data set [8], 55.7 °C in data set [9] and 55.1 °C in [10].

For B2, in [12], the Kd is 0.6 nM.

Turning to B3, the “deltaG at 25 C” value in data set [2] was -33.1 kJ/mol; in data set [8], -59.8 kJ/mol; in [9], -59.4 kJ/mol; in data set [10], -61.5 kJ/mol. In the data set with bZIP VBP protein, the binding result is recorded as “no binding”. Besides, the Kd in data set [3] stood at 0.04 nM; in data set [4] it was 0.04 nM; in data set [5], 0.02 nM; in data set [11], 2000 nM. Besides, the values for the Tm in data set [8], in [9] and in data set [10] were 63.8 °C, 64 °C and 64.2 °C, respectively.

In the case of B4, the Tm in the data set with c-Jun (unmodified) [13] was 61 °C. The same molecule displayed a Kd with c-Jun (unmodified) [14] of 6 nM. The binding result in data set [15] is “no binding”.

Turning to B5, the Kd in [1] is 10 nM; in [16], 30 nM; in [11] it was 10 nM. The “deltaG at 25 C” value in data set [2] was -45.6 kJ/mol.
